Laboratory results published in patent US20250196025A1.

Key:
[1] = target: IgG (Gammanorm); experiment: SPR (Biacore), variant amine-coupled to CM5 chip, Gammanorm as analyte, steady state affinity fit
[2] = target: IgG (Gammanorm); experiment: SPR (Biacore), variant amine-coupled to CM5 chip, Gammanorm as analyte, 1:1 kinetic fit

| Kd [1] | Kd [2] | Binder |
| --- | --- | --- |
| 38 nM | 9 nM | Protein L variant pAM247 (domain C4-1; H10, H45, Q60) (protein) PKEEVTIKVHLIFADGKTQTAEFKGTFEEATAEAYRYADLLAKVHGEYTADLEDGGYTIQIKFAGKEQPGENPG |
| 43 nM | 12 nM | Protein L variant pAM261 (domain C4-2; H10, H45, Y60) (protein) PKEEVTIKVHLIFADGKTQTAEFKGTFEEATAEAYRYADLLAKVHGEYTADLEDGGYTIYIKFAGKEQPGENPG |
| 50 nM | 18 nM | Protein L variant pAM244 (domain C2b-1; H10, H45, Q60) (protein) PKEEVTIKVHLIFADGKTQTAEFKGTFEEATAKAYAYADLLAKEHGEYTADLEDGGYTIQIKFAGKETPETPEE |
| 49 nM | 17 nM | Protein L variant pAM246 (domain C3b-1; H10, H45, Q60) (protein) PKEEVTIKVHLIFADGKIQTAEFKGTFEEATAKAYAYADLLAKEHGEYTADLEDGGYTIQIKFAGKETPETPEE |
| 51 nM | 18 nM | Protein L variant pAM260 (domain C3b-2; H10, H45, Y60) (protein) PKEEVTIKVHLIFADGKIQTAEFKGTFEEATAKAYAYADLLAKEHGEYTADLEDGGYTIYIKFAGKETPETPEE |
| 134 nM | 65 nM | Protein L variant pAM245 (domain C3-1; H10, H45, Q60) (protein) PKEEVTIKVHLIFADGKIQTAEFKGTFEEATAKAYAYANLLAKEHGEYTADLEDGGNTIQIKFAGKETPETPEE |
| 45 nM | 17 nM | Protein L variant pAM258 (domain C2b-2; H10, H45, Y60) (protein) PKEEVTIKVHLIFADGKTQTAEFKGTFEEATAKAYAYADLLAKEHGEYTADLEDGGYTIYIKFAGKETPETPEE |
| 83 nM | 39 nM | Protein L variant pAM243 (domain C2-1; H10, H45, Q60) (protein) PKEEVTIKVHLIFADGKTQTAEFKGTFEEATAKAYAYADLLAKEHGEYTADLEDGGNTIQIKFAGKETPETPEE |
| 98 nM | 47 nM | Protein L variant pAM257 (domain C2-2; H10, H45, Y60) (protein) PKEEVTIKVHLIFADGKTQTAEFKGTFEEATAKAYAYADLLAKEHGEYTADLEDGGNTIYIKFAGKETPETPEE |
| 120 nM | 55 nM | Protein L variant pAM259 (domain C3-2; H10, H45, Y60) (protein) PKEEVTIKVHLIFADGKIQTAEFKGTFEEATAKAYAYANLLAKEHGEYTADLEDGGNTIYIKFAGKETPETPEE |
| 54 nM | 14 nM | Protein L variant pAM253 (domain B4-2; H10, H45, Y60) (protein) PKEEVTIKAHLIYADGKTQTAEFKGTFAEATAEAYRYADLLAKEHGKYTADLEDGGYTIYIRFAGKKVDEKPEE |
| 60 nM | 17 nM | Protein L variant pAM239 (domain B4-1; H10, H45, Q60) (protein) PKEEVTIKAHLIYADGKTQTAEFKGTFAEATAEAYRYADLLAKEHGKYTADLEDGGYTIQIRFAGKKVDEKPEE |
| 55 nM | 20 nM | Protein L variant pAM251 (domain B2-2; H10, H45, Y60) (protein) PKEEVTIKAHLIYADGKTQTAEFKGTFEEAAAEAYRYADALKKDHGEYTVDVADKGYTLYIKFAGKEKTPEE |
| 72 nM | 27 nM | Protein L variant pAM237 (domain B2-1; H10, H45, Q60) (protein) PKEEVTIKAHLIYADGKTQTAEFKGTFEEAAAEAYRYADALKKDHGEYTVDVADKGYTLQIKFAGKEKTPEE |
| 69 nM | 16 nM | Protein L variant pAM252 (domain B3-2; H10, H45, Y60) (protein) PKEEVTIKAHLIYADGKTQTAEFKGTFEEATAEAYRYADLLAKEHGKYTVDVADKGYTLYIKFAGKEKTPEE |
| 82 nM | 25 nM | Protein L variant pAM238 (domain B3-1; H10, H45, Q60) (protein) PKEEVTIKAHLIYADGKTQTAEFKGTFEEATAEAYRYADLLAKEHGKYTVDVADKGYTLQIKFAGKEKTPEE |
| 79 nM | 29 nM | Protein L variant pAM249 (domain B1-2; H10, H45, Y60) (protein) SEEEVTIKAHLIFANGSTQTAEFKGTFEKATSEAYAYADTLKKDHGEYTVDVADKGYTLYIKFAGKEKTPEE |
| 101 nM | 42 nM | Protein L variant pAM235 (domain B1-1; H10, H45, Q60) (protein) SEEEVTIKAHLIFANGSTQTAEFKGTFEKATSEAYAYADTLKKDHGEYTVDVADKGYTLQIKFAGKEKTPEE |
| 48 nM | 11 nM | Protein L variant pAM262 (domain D1-2; H10, H45, Y60) (protein) PKEEVTIKAHLIFADGKTQTAEFKGTFEEATAEAYRYADLLAKVHGEYTADLEDGGYTIYIKFAGKEQPGEN |
| 56 nM | 16 nM | Protein L variant pAM248 (domain D1-1; H10, H45, Q60) (protein) PKEEVTIKAHLIFADGKTQTAEFKGTFEEATAEAYRYADLLAKVHGEYTADLEDGGYTIQIKFAGKEQPGEN |
